According to article PMC11143224, “Flavivirus Zika NS4A protein forms large oligomers in liposomes and in mild detergent” (Scientific Reports, 2024):

Tests used:
[1] = target: the molecule itself; assay: AUC; sedimentation velocity, most diluted samples (detergent-to-protein ratio 640 and 320); 1 mM C14-betaine, 50 mM Tris-HCl pH 7.3, 100 mM NaCl, 2 mM TCEP, 33.4% D2O, 50,000 rpm, 25 °C, absorbance at 230 nm
[2] = target: the molecule itself; assay: cross-linking; purified NS4A (12 uM) in POPC/POPS (4:1) liposomes, lipid-to-protein ratios 40, 100 and 250; DSS 0.03-1.0 mM, or DSG, BS3, DSS, EGS, DSP at 0.25 mM, 15 min; SDS-PAGE and anti-His-tag Western blot
[3] = target: the molecule itself; assay: AUC; sedimentation equilibrium, multi-speed (15,000-33,000 rpm), 1 mM C14-betaine, 50 mM Tris-HCl pH 7.3, 100 mM NaCl, 2 mM TCEP, 33.4% D2O, absorbance at 280 nm; fitted in SEDPHAT; constant is of dimers to hexamer

B1: full-length Zika NS4A protein (strain MR-766) (natural protein)
chain: GAALGVMEALGTLPGHMTERFQEAIDNLAVLMRAETGSRPYKAAAAQLPETLETIMLLGLLGTVSLGIFFVLMRNKGIGKMGFGMVTLGASAWLMWLSEIEPARIACVLIVVFLLLVVLIPEPEKQR
notes: NS4A of Zika virus strain MR-766, the cut product of the polyprotein (mature NS4A without 2K), 127 residues (1-127); also called ZIKV NS4A; NS4A-FL; not shown: His-tag, N-terminal, kept
- stoichiometry N [1]: 2
- stoichiometry N [2]: ≥ 6
- stoichiometry N [3]: 6
